Test results published in the domain aggregation screens of Martell et al. (2025).

Assay: soluble fraction after stress (log2 fold change); higher = more stays soluble; pooled small domains, quantitative proteomics
Settings: stress: 75 degC
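Note: 20 min heating vs room temperature control held 20 min.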

Sequence	soluble fraction (log2)
HMLNNVDIHKLSEDLLLYKIKIDIKLKNIEDAISTIDYFSNKFPNSDLMPYVIYEKKLIDNI	-2.59
HMLNPLLLPFVEAEDFQVKLEILAAMEGKVGEEDLDILYEALDLPKMTGNIEEQIHSIKQYIEMRK	-1.18
HMLNPVEKLLLLSQLYIGRLKGSFVVKEKHHKSTILGEVRELSPEEITLKTDEGYRLIRVDDILTIQL	-4.44
HMLNSLDATQRLKLNKDGVVVFNFGKYVDQSVIDIFKKEKGYYNWMMSKDFSQQVKNIITKIYQEEIIG	-1.08
HMLNTLGADIRALRKARGLTLAELAQTLGRSVGWLSQVERDMSEPGINDLRDLARALDVSISSLFG	-1.8
HMLNWINSDVLERFNSLTKEKQKAIVADTETRLNGLSQARFKVAKSSSNERLIAEFAIEINEAIMRAAAL	-2.11
HMLPADETEARVLNVLGSEPLHVDEIRNQADLPIEKISATLAMMELKGMVRQVGGMNYVAMR	0.0378
HMLPANGEAIYHYLASGAIKGVGPVTAQRIVDKFGEDTFDVLENNPLWLAEIKGITRKTAENIGAAFAAQF	0.631
HMLPDAESFSYEVPYTKGDGGTYNYEGKIKAQNADAARDEIIRQAQVYFQMNPQFTPDYPSTTITSLD	0.14
HMLPDDDMLLNILTKLLIDKQFVINSHEIFDFIIKRANRSYEEMFILVNKLDQLSLEKKRQLTIPLIKEI	-0.881
HMLPDLQESIDELLNIVDQRLNTSFEELVSGVNTTEKAIAFFLALLETIKWGFIKAEQTNNENKINIEKNY	-0.146
HMLPDPIYEAFMMASDLGIVVRNGPQYAYPDKETGEVLYKALGREKFLQLMKDNDGLLTSIETEIRSM	-1.61
HMLPKTVTLIDPVSGVAKTVTWVPALTLYSARRKAGLNRVPNTATIDRGGRELTGKRGSTLQPGDVVRW	-0.664
HMLPPLGDQELELLRFITESAPITVREAAESYGKDRGLARTTVLTMMERLRAKGYLTRSESGAANEYSP	-0.64
HMLPPVFLTIDANENVIVRKDGEPVQTLNKFELGAFARSQAENSAEQPVVLAADKSIKYEVVMEVI	0.192
HMLPRLVLSPGTEVLATVMGKYENGMSLVKISSHLFAMDLPSRVQVGDSLRMTFLHQDARPTFALA	-1.11
HMLPSDLDEGNRRRQLIEGAARLFRAKGFDGTSTRDIAAAAGMRSGSPFYHFDSKNALLYVVVQEGM	-0.0127
HMLPSWLPTDAWEAFLEARVAMKARPTERAKGLLLGELSKLVSQGQDARAVLEQSVQRGWRGLFPVK	-1.76
HMLPSWPGVSEFEVARLLRRGRARGSLTLDEVIDVVRDAELTSELIAGIRSSLRAEGIDFEET	-0.731
HMLPTLSLSVKIYKGEGDIALDLEEMVKAFDQLNFGSYPFSEKGVHGTNIVIRGNDKKHMEEAEDKVRSLT	-0.438
HMLPVDALFAQHPALIVTLGQTEKLKHGAAIRDWHFADGTYRVYSETGEFLLLGTVKGQILTTVKSFFE	-2.24
HMLQARKFTHIQGYEFEAEFLRTNGEFVELQDPQGRKKWFPISNFIQDDKDFIKEQAGNLSS	-0.309
HMLQEFTLELATAVVQEFRDQPGALINALHKLQETFGYVDEAAMPVLARLFNLSRAEVHGVASFYHDFRRS	-1.67
HMLQEHVLEIRHPSWNDAFRIIGHDGWRTQTGAHAAILSYDEEELNIKWDSWGYERFIRDEKGIFRLAA	-0.11
HMLQESDPEALRGIVKSVLVDHAAVAEEYRAGKQSVLQFLVGQGMKASKGAGNPGLIRDLMLEEL	-0.237
HMLQLSDAISRVESFLQGQNRNLAFSIDENTERSVVTVLDSDTGDVIRQIPSEELLVLAKRIQELQQD	-0.0104
HMLQMSDSSALEAILDEVLGSEMGQKALSDIEAGNMKAMGFIIGQSMKLSKGQANPQIINKLLQQRLK	-0.326
HMLQNLGFKPDLEIRHFPGIVLPDIHRSKKTISLLYTLLAGDIKKLPENEINYKDSKIISSYLWTLLRYH	0.103

Sequence	soluble fraction (log2)
HMLQSGSDYLIEQVRMYTATGQREYMDNYFEELNTTRRRENALEYFAEHYGDNDAFTLLKSAMTTSQN	-0.258
HMLQVRRILQLLADGYSKRQISQQTAVSRNTIDSYEDRFHLTGKSYQELLSMEDGELSGIVYP	-1.11
HMLQVSDENFVVELVQKVLLDNPSSVQEYKNGKESVLQFLIGQAMKASKGTANPQIVKEIMLKLL	-0.68
HMLQYSQEIEEAQKILQNLGLYKGEIDGINGVNTKSAIKEFQRKSGLIIDGILGPNTTSALSKGAESYITV	0.0721
HMLRISEEVWALVEKTLREDWSPEQVSGKLKASGISVSHERIYQHIYADKRVGGTLWTHLRR	-2.47
HMLRLLEIIAGNEVSKEINSQVIKYYKALKNKKIEEINNLTPSYNKLIISFDLKKKNFREMKKIIEDISIN	-0.136
HMLRPEEMIYHEMLDAILDRRLEPGMKLVEEDLAKTFGVSRARIRATFLQLAHDKLINLVPNRGAFVAEP	-2
HMLRRNQVQSQVIPRENGSYVVELQLRDDVDSILRLELTAATEAMARDLADRFRQDPEGVYTRLLSALY	-2.22
HMLRTEYLTVNYAKASEVAELVTASGFLSSRGSITVDERTNTLLLQDTATNIDEVRFMLEQLD	-0.366
HMLSADLLDKIQRIDSLEQQGKYAQAEKEARALLSDPSITPSERASVQNILSSIARKKAAQAQ	-0.064
HMLSAGTTEQRLAMLQYQWEKQSETYSALGPNNGVVTLGQIRNTMAKIAELAGFKDAAQFWMPVPMDYDV	-0.217
HMLSAPMPGTVLEVHVKEGQRVREGQTLVVMEAMKMEHRVQAPRAGVVTKLHYSEGDRVDVGAILVEIG	-1.34
HMLSAQEIPVEDIATRDFVLAEDVVSAKKVLLLPKGVDLSWFGSAKKRLVQRLKSEGVTHIRVFA	-2.06
HMLSFSEAERAVLSLLNRRPDLSAKALASELAVSARTVERYLQSLQQKGKLLRVGAKKGGYWQV	-0.842
HMLSGNLTADAHVHRGLQALSDGRNEDALVDFTKATEVQADFAEAWNKRATVNYLLGRYDAAVLDIQKTLE	0.257
HMLSLDDAAFERYDLTMREREVLLLLLNRLTYEEIAERLFISTNTVKTHVGNVYKKTGVSSRKELVSK	-1.26
HMLSLGQQIRNHVLSRIESGEWPEGSRIPSEAKLVELLGASRMTIHIALRDLSAEGVLLRKQGAGTFVAPR	-2.68
HMLSRKEVFTVSQKDIEKNPIGAADKFFDGHVGIHKLLVVDEEDRLRGLFTLSDIERINDEQ	0.179
HMLSRTYDSSGPDVKIRGTAQTVADKYMSLARDAQSSGDRVMAENYLQHAEHYNRIIAAAQAQ	0.34
HMLSSEQQQKLDSLSRKELEVAELVSHGATNKMIARTMNITERTVKAHLTAIFQKMNIPDRLSLAIFFRDL	-2.79
HMLSSNEIKEIFALFDKSNRGQVATSELGTLVRALNLNPTETEITDMQSKVDPKGQGSFTLDVLEKVVQD	0.394
HMLSVNREQVEQSLKQEWGFDYDKNLRAAQRAIDVYGDDDLKLLLNGPTGNDPAIVKLFARLGGEVTEE	0.132
HMLSYIELTVDNTSKASYIMTDKMKINNFKIIGNNTIRVYENKVSPQDISRTLSMNNVSIEALGRKS	-1.29
HMLSYNINEESKSSIMNVNVLKNNFASIDVEKLQNIIFTTFKKYNYYLNDFSSMNLLLHLLIIVDREL	0.418
HMLTEKEEEVMQILWDNGPLFVREILEFYPDPKPHYNTVSTVIRVLEEKNFASHKAYGNTYQYFP	0.315
HMLTLEDMTRINSIISPRIKKGQSLYHIAKNNGDELNISESTLRRLVMTGEMDAGIIDLPQAVK	-0.00636
HMLTLTNREKQVLVYIAKGHQVAQIAYELKLSGHTINGYIKTIYQKLHISSRAEAALLAQQYGL	-3.31
